The values that follow are results of earlier work, collected in article PMC8544432.

pKd: −log10 of the molar value. Read-outs that look alike come from different tables or passages of the source.

Series [1] addresses PBX1 (Homo sapiens) (UniProt P40424).
For series [2] the target is unchanged. This is another data set of the same source.

Chain of UniProt P40424 (P40424 whole entry): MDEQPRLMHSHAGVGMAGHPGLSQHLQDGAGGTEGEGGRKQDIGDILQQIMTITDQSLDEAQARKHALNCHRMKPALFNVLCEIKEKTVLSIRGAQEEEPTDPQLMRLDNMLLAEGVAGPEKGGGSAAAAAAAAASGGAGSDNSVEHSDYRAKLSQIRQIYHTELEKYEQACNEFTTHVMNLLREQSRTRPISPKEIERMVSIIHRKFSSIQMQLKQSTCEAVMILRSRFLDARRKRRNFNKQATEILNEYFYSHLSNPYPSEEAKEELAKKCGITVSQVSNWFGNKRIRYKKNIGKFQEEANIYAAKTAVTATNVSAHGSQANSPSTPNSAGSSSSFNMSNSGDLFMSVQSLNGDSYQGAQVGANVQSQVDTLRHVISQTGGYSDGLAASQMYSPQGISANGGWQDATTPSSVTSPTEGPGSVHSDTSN

Regarding MEIS1 (from UniProt O00470), the pKd (as a rule, −log10 of the Kd, conventionally taken in molar units) with PBX1 (Homo sapiens) [1] was 7.10.

Consider PREP1 (from UniProt P55347), for which the pKd with PBX1 (Homo sapiens) [2] was 7.74.
